In the DeepSol protein solubility set:

Assay: soluble on expression in E. coli; label from the status in PepcDB or PDB records

Sequence	soluble on expression in E. coli
SLSRPWQGKGCATLWASVDHRFQINLRGVIDLLSHHLYSSPDVYIRELLQNATDAIRARQHLEPGHEGSIRIELIEKQDGGPPTLLFSDDGIGLTEEEIHRFLATIGESSKREVLAERRGDFIGQFGIGLLSCFMVCDEVLVVTRSAQGGSPTMEWRGRHDGIYTVRPSGHPLERPGTQVFLVARPDAASLFTPQRVRELALHYGGLLPFPIHLTAGGYSGRINTEG	soluble
AHHHHHHGSIIAITGTPGVGKTTVARKLAEKLGCKYVNLRDFALEKGIGEVKGDELEVEVDELAYFVEKEFKGKNVVLDGHLSHLMPADLVIVLRAHPKTIAERLKERGYSKDKIGENVEAELVDVILIEALDEHENVIEVDTTGKTPEEVVNEILNLINSGIKRRVGIVDWTKVYEEIIPYLRLGGD	not soluble
MVTSKKCPTCHGKRLSTSVLKCKINNLDIADFTNLSIDDALKFIKKIDSPKANVIIEPLQQQLESLSYIGLNYLTLSRESTSLSGGESQRIKLIRHLNSALSDLVYIIDEPSIGLHPEDIQRINEIILSLKNKGNTVLVVEHDPDVIKIADYIIDLGPLAGKYGGDITFTGSYHELLNSTTHTGDALRRMHQLKSPNLSASNFINLKNVSRNNIKNMTVTLPEQAMTVVTGVAGSGKSSLIHTGLEALADTIFIDQKPAHASSRSNLLTYLNIFDDVRSYFSEVTGLKKSLFSYNSAGACPECHGKGIIKTELAFMPDFTQTCDVCHGKRYKPEVLDVKVEGYNIADILALTVDEAITFFNKNKDIAQPLQALKSTGLNYMTLGQTLDTLSGGEVQRVKLSKYLTKTVHQHIFVFDEPTTGLHEDDIPILIDCFKRLIDEHNTVVIIEHNLTMMTYADWIIDIGPFAGEKGGQLLYQGEPQGLLQINASLTAKHLKRYTERLEHHHHHH	soluble
SNNWVVSGSLTVSGNPLLANDPHLSLTAPGIWLPIVISSPSYSLAGVTIPGVPLVVIGRNSHVAWGFTNVGSDFTDFYRYQWVDENRYFYKGRIFGVEKSSIEAYVWDPLARSYRVQEISVARTIHGPVIEWQGEKFAVSYTSARPTFEMIFLWLLNKASSVRDALSAQRYFYGPPQNMVVADSAGNIAYSPVGAYPERATLPTIETGYGPIVNTGFLPFDGSAGEGEWRGFKPYSSLPVLFNPPQGFVATANSKPFEDGCWDGLGWDYADRFRTERIYTLLQERSAEEPLDAGDMRDIQLDVEDLGLKTLVSLMVRVASGDGGHVLERYMDMLAEWAENPQMNVDDYKPTLALLASWYFARDFWESLYGSEEHWRFIKLEYAEKALKAYLRGEDWVFNYF	not soluble
GPEAERAEMLAWFDRINAERRRAGMVAVLTRRCNLACPYCFEGGQAPEGDMSEETADLLAAMIEREYLAKGWRVDMDFYGGEPLLRPDLIRRIAEPLRAAGGGLFHGNMVSNGSLLNRAVMTDLTALGIESVKVTLDGPPQVHDRYRPYGGGAGSFHDILRGMGEVVDLVKIHVGGNFTRETWREYPALLDLLLAEGFTPDRLGTVRFTP	not soluble
AEKQVTAGRHTYALPELFLVMATQNPIEQEGTYPLPEAQLDRFLLHLEVDYPDAEHELAILRINRGEAKGECSIERPSLSQQDIFTARQEVLDIHMAEAIEQYIVRLVMATRRASEYDSELDKWLAMGVSPRATIALDRCARAHAWLAGRDFVSPEDVQAMAYPVLRHRLLLSYHAQAEGVTSNQVIDKLLNLVGSA	not soluble
MAGDPMNDVSKASLPKAIFLMGPTASGKTALAIELRKVLPVELISVDSALIYRGMDIGTAKPNADELKAAPHRLLDIRDPSQAYSAADFRRDALAQMAEITAAGRIPLLVGGTMLYFKALLEGLSPLPSADPEVRSRIEQQAAELGWEALHQQLQEIDPVAAARIHPNDPQRLSRALEVFFISGKTLTELTQTSGDALPYQVHQFAIAPASRELLHQRIELRFHQMLASGFEAEVRALFARGDLHTDLPSIRCVGYRQMWSYIEGEISYDEMVYRGVCATRQLAKRQMTWLRGWEGVRWLDSENPDRARKEVLQVVGAIADLEHHHHHH	soluble
MIHETAQIHPTSVVEEGAIIGANVKIGPFCFVDSKVEIGEGTELLSHVVVKGPTKIGRFNRIFQFASIGEACQDLKYAGEDTQLIIGDRNTIRESVTMHRGTVQDKGITIVGSDNLFMINAHVAHDCVIGDRCIFANNATLAGHVKVGNQAIVGGMSAIHQFCHIGDHCMLGGGSIVVQDVPPYVMAQGNHCAPFGINVEGLKRRGFDKAEIHAIRRAYKSLYRNGLTLEAAKAEIAQEAEQYPSVKLFLDFLEKSERGIIR	not soluble
DVKIEKLKDNLYVYTTYNTFNGTKYAANAVYLVTDKGVVVIDCPWGEDKFKSFTDEIYKKHGKKVIMNIATHSHDDRAGGLEYFGKIGAKTYSTKMTDSILAKENKPRAQYTFDNNKSFKVGKSEFQVYYPGKGHTADNVVVWFPKEKVLVGGCIIKSADSKDLGYIGEAYVNDWTQSVHNIQQKFSGAQYVVAGHDDWKDQRSIQHTLDLINEYQQKQKASN	soluble
MGSDKIHHHHHHMLPNRLLANRAYSTAINRFRVVEVGARDGLQAEKKFVPTEIKVELIDRLSECGFQTVETTSFVSPKWVPQLADHNEIVKKHRRFEGVSYPVLVPNAAGLKNALATGVVEEIAVFGAASDAFSLKNVNSNVEDSLKKLMEVTKIALENNIRVRGYVSVVVGCPYQGAVQPEMVARVAEKLLESGCYEVSLGDTIGVGTVKTVSKMLDTVLKSVPAEKLAVHFHDTYGQALANVLISIEKGIRSADSSIAGLGGCPYAKGATGNLATEDLLYFLKGNGFETGVNLDKVVETAKWFNEAAGYDKWSRVGAAMMAKKSKSCC	not soluble
MSEEIKQEVKEEAPETTTEAKTEEAAPVAEVVAEVVTNGDKPAENGKTEEPSKYAETENYKKLIGLKMKPALADVVCEIYESGLLGPEDLDDRAVDIINSVNLDQAKFIFTEIKNSELFGVATKSLYVTSLIRSFKDRCRQQGAAAVTSGKLINGPELAALKNLLETTGYTIEVTIGQRKFGGPPPDWEGPATGPAGQGHEIYVGHIPTDVFEDTLVPLFEKSGKIWDLRLMMDPMSGASRGYAFVTYCNKEDAAAAAKTYDGHEISTGKPLKVNVSIANTRLFIGNIPKTKSKDEILEELKTHAEGVVDVIVYSVPDNEKIKNRGFCFVDFIDHKTASDIKRKIAQHKIRPFNADVYVDWAEHQEEPDEDTMSKVKVLYIRNIKEAVTEEKLNELFKEYASLDRVKKVKDYAFIHFNERDDCLKAMEEWNGKELEGTVVEASLAKPPQEKKKKPVMRGRGFGGAGGGAGNHGQRGGQRGGGQWGGNAGPGGYYPNHFNNGYDMPMPWGGGYGGDMGYGAYGGGYGGGYGGPGAYGDFGAYGGGGFRGGMRGSPRGGMGGGGGFRGGPPGRGGMANRRGRGKRPGDGRGGPASKRDNGKPDFSADVNMSTF	not soluble
MSLTRAAVNPKPFVVPELKQWTGKDGNFTPGKDTRIVCTSQNPELLRIARMFADDYQQMFGQTLSVAQGKATSGDFVLSLSADKKLGEEGYAIKITDRVAISAPTPTGLYWSTRTLLQLAEQNQERSLPQGTIRDYPDYPLRGFMIDCGRKFIPMAYLQDLVKIMAYYKMNTLQVHLNDNGFKQYFEHNWDKTYAAFRLESETYPGLTARDGSYSKKEFIDFQKQAASNFVEIIPEIDVPAHSLALTHYKPEIGSKEYGMDHLDLFKPETYEFVDALFKEYLEGDNPVFVGKRVHIGTDEYSNAKKDVVEKFRAFTDHYIRFVEGFGKQAVVWGALSHAKGDTPVKSENVVMNAWYNGYADPATMIKDGYQLISIPDGLVYIVPKAGYYYDYLNEPYLYKEWTPAHIGKAVFDEKHPSILGGMFAIWNDHVGNGISVKDIHHRIFSPLQTLSVKMWTGAQTGIPYETFNEKRALLSEAPGVNQLARIGKKPELVYERSTVAPGSTSDYPEIGYNYTVSFDITGAKESEGTELFRSPNAVFYLSDPIRGEGHHHHHH	soluble
MGSDKIHHHHHHMSSSSLSSTSTRVTYAVGDFVYFDDTSATDAPYQIRKIEELVKTEKGGVDARCVVYLRRRDIPQHLLKIADQAQRRFDNYYEVDKKKPENFTTKGFIVVNGASEAAPEAAPEATEASAETSETKVKEDTDDVAEKMEEDEECPAPVGQGRTSSTEEPSASDAPAATAKDKKEEKEAKENAKNLKETAEAEATKLIDWGDGGLPLGVDKLTPDQRLKLRQHEIFMTRQSEILPAAAIRGKCRVVLLGDGEEAQNYLPLDDTFYHSLVYDPNAQTLLADK	not soluble
SHSLGWIFGMPCNQRSSTKASCEEVFDPTEESYLNIETSL	soluble
MSLKKIGVLGMGYVGIPAAVLFADAPCFEKVLGFQRNSKSSGYKIEMLNRGESPLKGEEPGLEELIGKVVKAGKFECTPDFSRISELDAVTLAIQTPFANPKDLEPDFSALIDGIRNVGKYLKPGMLVVLESTITPGTTEGMAKQILEEESGLKAGEDFALAHAPERVMVGRLLKNIREHDRIVGGIDEASTKRAVELYSPVLTVGQVIPMSATAAEVTKTAENTFRDLQIAAINQLALYCEAMGINVYDVRTGVDSLKGEGITRAVLWPGAGVGGHCLTKDTYHLERGVKIGRGELDYPEGADSIYVLARKVNDFMPAHMYNLTVAALERLGKKMDGSKVAMLGWAFIKDSDDARNTPSEPYRDLCLKAGASVMVHDPYVVNYPGVEISDNLEEVVRNADAIVVLAGHSAYSSLKADWAKKVSAKANPVIIDGRNVIEPDEFIGKGFVYKGIGREGHHHHHH	not soluble
MNIELRHLRYFVAVAEELHFGRAAARLNISQPPLSQQIQALEQQIGARLLARTNRSVLLTAAGKQFLADSRQILSMVDDAAARAERLHQGEAGELRIGFTSSAPFIRAVSDTLSLFRRDYPDVHLQTREMNTREQIAPLIEGTLDMGLLRNTALPESLEHAVIVHEPLMAMIPHDHPLANNPNVTLAELAKEPFVFFDPHVGTGLYDDILGLMRRYHLTPVITQEVGEAMTIIGLVSAGLGVSILPASFKRVQLNEMRWVPIAEEDAVSEMWLVWPKHHEQSPAARNFRIHLLNALR	not soluble
MSLDVEDTVKKLNLKFRNIEGERLILAITCDENKNVLMVAFMNEEALKKTLETGYMHYYSTSRKKLWRKGEESGNVQKLIKFYRDCDGDALLFIVEQKGVACHEGYYSCFHYKIEDGELKITGEYYSKREGHHHHHH	soluble
MGSDKIHHHHHHMREKIDALTQNLNRTIVGKTEAIRLVLVALLGGGHALLEDVPGVGKTLLAKSLARSLDGTFQRLQCTPDLLPTDITGTNIWNPKSGEFSFMPGPVFANVVLADEINRATPRTQSALLEVMEEQQVTVDGVSRTVPHPFFVIATQNPVEYQGTFPLPEAQMDRFMLSLSLGYPGVDEELEMLQNLQHGIKVGDLQPCLTLAEVAELREICSQVKVETVLQQYILELVRSTRQDEEITLGVSPRGTVALHKATQALAFLLGRDYAIPDDVKFLAPHVLCHRLIARGGRSARSIVDRLLRSLPIP	not soluble
MSLKFIGECRDRWPIAVLCRTLEVTRAAYYRFAGRGPTVTEIKQTQIIQAVKEIRLEKHHDAYGSPRMQRAIVKRGVVCCRNTVAKCMRHAGIQANRRTKFRISTTDSNHDQPIASNLLGQNFTTEAINRVWLTDITYIPTQEGSTYLCAFVDLHSRKIVSWKTSRNMDSELVVGAFDQALTFRKPNAGLIVHSDRGSQFASDHFRRRLAASGLVQSMSRRGNCYDNAPMESFFKSYKTEEAQQIYDTHEHATRGVSDYIERFYNPHRLHSSLGYLSPIDFEQAIKEPSLVSESEGHHHHHH	not soluble
VFLGKTSPDFNLGWSNSLSYKGFGLSFLINGRFGGVVTSSTQAILDRFGVSKASAEARDAGGVLLPGQGRVDAQSYYQLIGTGDYTTSGYYVYSATNIRLQELTLSYRFPDLWFKNVLKDVTLSFIANNPWMLYSKAPHDPELTPSVGTYGQGNDYFMQPSVRSFGFGIKFKL	not soluble
